According to the RNAGym collection of RNA variant scans (doi:10.1073/pnas.2313332121):
Variants at the floor of the assay were thinned out.

B1: TPR 5TU (parent)
chain: GGAUCUUCUCGAUCUAACAAAAAAGACAAAUCUGCCACAAAGCUUGAGAGCAUCUUCGGAUGCAGAGGCGGCAGCCUUCGGUGGCGCGAUAGCGCCAACGUUCUCAACUAUGACACGCAAAACGCGUGCUCCGUUGAAUGGAGUUUAUCAUG

Variants of: B1
Assay: polymerase ribozyme fitness, log enrichment relative to wild type (log ratio); higher = more active; in vitro selection for triplet polymerase activity
In short: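 Fitness is a logarithmic measure of how a genotype enriched relative to the wild type, with replicate averages weighted by inverse variance. The logarithm uses base 2, and enrichment came from Illumina sequencing of input and output libraries. Those libraries were PCR-built, transcribed mutants of each subunit of a heterodimeric triplet polymerase ribozyme, passed through one triplicate in vitro selection round that included frozen incubation at −7 °C, gel excision of extended constructs and streptavidin-bead capture. Genotypes were kept only if they had ≥10 input reads and ≥1 read per output.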

Variant | polymerase ribozyme fitness (log ratio)
U33G A41U C51A G67C C72U | -3.95
U33C A47G C93U C103A C132U A137C | ≤ -4.2
A30U A39C A49C U104C C125G | ≤ -4.2
U31A G58U U146G | -0.274
A30G A37C G94C | ≤ -4.2
U31G C95U G126C | 0.488
C32U G81C C114G | ≤ -4.2
A30U | -2.87
A30G | -2.24
U33G C43A C57A A60C G74A G83A C85G A150U | ≤ -4.2
A30U G68C G81C G94A A98C U104C | ≤ -4.2
U31C A41U G48C U55G A89U | -2.77
U33C C125A | -3.35
U31A G46A U82C A89G U145C | -3.66
U31C C51A G74U G84A C87A A113G A115C | ≤ -4.2
G34U G84A C95U C114G | -4.02
C32A U55G C69G | -3.22
A30C C38U G74A | ≤ -4.2
U33A G80C C99U C131U | ≤ -4.2
U33C C93A C99G G128U | ≤ -4.2
C32A C69A U145C | -3.25

Variant | polymerase ribozyme fitness (log ratio)
U31G A73G G84A | 0.0111
U31G G46C A60U A73G C76G C79U G92A C93U C96G U135G | ≤ -4.2
U31A C51G C54U A122G | -2.68
C32G C108G G140U G141A U145G | ≤ -4.2
C32A U56A C103G A107U | ≤ -4.2
C32A G86C | ≤ -4.2
A30C U44A C51U U77C C131G | ≤ -4.2
U33G G42A A49G C95G | ≤ -4.2
U33A A120U | -4.01
A30U C32U G50U C51U U82C A106U A119C | ≤ -4.2
A30G G46A G70C U78G G86C A142C U146A | ≤ -4.2
U33G C36U A60U C87U A91G C108A U109A | ≤ -4.2
U33A C63U C93A A97G G126C | ≤ -4.2
C32A G74U C85A A98U | -0.754
C32U G59U C85U A115G | -3.62
C32G G42C A47G G59C A91U A107G | ≤ -4.2
C32A G80U C96U A138U | ≤ -4.2
C32A G94A | -4
C32U U56A G74A | 0.713
A30G A37U G50A G83C | ≤ -4.2
A30U A41G A142G | -3.58

Variant | polymerase ribozyme fitness (log ratio)
C32U A40C | -4.1
A30G G83U G117A | ≤ -4.2
C32G G88C | -3.96
A30U G58C C95U U135C U144A | ≤ -4.2
G34C G42A G86A U148C | ≤ -4.2
U33A G46U A107G | -4.18
G34C G94C | -3.85
G34U A60C C108G A150C | -4.17
U33C G59C A64G C96G U130C | ≤ -4.2
U31G A113U U134G | -3.56
C32U C116G | -2.9
A30U A89U C93U A120G C125G G141A G143A A147C | ≤ -4.2
A30G A47U U53A C76G C96U C118A | ≤ -4.2
U31G A40U G42A C85A U148C | ≤ -4.2
A30G A64C A66U C99U U102A G117A U145G | ≤ -4.2
U31A C85U U101A A150U | -1.46
U31G C96U C99U U127G | ≤ -4.2
C32A A37C C54G G83A C118A G136U A138C G141C U145G | ≤ -4.2
U31A A52C U104G U134G | ≤ -4.2
U33A A40U C57U G86U G112A | ≤ -4.2
U33G C38A A39U C76U C99U A150U | ≤ -4.2

Variant | polymerase ribozyme fitness (log ratio)
U31A U78A C123G U135G G140U | ≤ -4.2
C32G U56A C57U C76A C93A C118G U135C | ≤ -4.2
A30C A73U C85G C93G C96G C149U | ≤ -4.2
U31C G34A U56G A60G A73G G84A A89U | ≤ -4.2
U31A A37U U90G C93U C125G G141A | ≤ -4.2
A30U G100U | ≤ -4.2
G34A C85A | -3.37
G34A A39C C93A U104C | ≤ -4.2
C32A C54A U130A | ≤ -4.2
A30G C38A U56A A107U A121C | ≤ -4.2
C32U G68A | -3.89
A30G C123U G133U C149G | ≤ -4.2
A30C U31A C75A C79A U144A | ≤ -4.2
C32A A52G U53A G65C C99U G143U | ≤ -4.2
C32A A39G G50U U55A A73U C75A A138U | ≤ -4.2
A30C G50C G65A G84A U109G A142U | ≤ -4.2
C32G U56A | -4.1
G34U C76U C87U G124U | ≤ -4.2
C32U C54G C85A A119U G126A C149A | ≤ -4.2
U31A A49C U82G G84C U127G C131U U151A | ≤ -4.2
U33G C76U A97U A119C | ≤ -4.2
